Molecular target: human IL‐4Rα (human, UniProt P24394 26-232, N‐glycosylation sites (modelled in the crystal structure; positions not given))
Assay: ITC

- Kd: 2.55 nM
B1: dAb1 (VHH)
VHH: QVQLVESGGGLVQPGGSLRLSCAASGDFYCMAWFRQAPGKEREAVAAIRSGGRSTYYADSVKGRFTISRDNSKNTLYLQMNSLKAEDTAVYYCAVGVDGNCRNYWGQGTLVTVSS

Reference: publication PMC11381654 (2020)
